Measurements as given in PMC5931557.

B1: mTRAIL-R: N99/N122/N150Q (protein)
parent chain: MEPPGPSTPTASAAARADHYTPGLRPLPKRRLLYSFALLLAVLQAVFVPVTANPAHNRPAGLQRPEESPSRGPCLAGQYLSEGNCKPCREGIDYTSHSNHSLDSCILCTVCKEDKVVETRCNITTNTVCRCKPGTFEDKDSPEICQSCSNCTDGEEELTSCTPRENRKCVSKTAWASWHKLGLWIGLLVPVVLLIGALLVWKTGAWRQWLLCIKRGCERDPESANSVHSSLLDRQTSSTTNDSNHNTEPGKTQKTGKKLLVPVNGNDSADDLKFIFEYCSDIVPFDSWNRLMRQLGLTDNQIQMVKAETLVTREALYQMLLKWRHQTGRSASINHLLDALEAVEERDAMEKIEDYAVKSGRFTYQNAAAQPETGPGGSQCV
B2: mTRAIL-R: tunicamycin (protein)
parent chain: B1 parent chain

What was measured:
[1] = cell surface staining, flow cytometry; reducing immunoblot; conditions: glycan lost; control: WT mTRAIL-R
[2] = non-reducing SDS-PAGE immunoblot, transient overexpression; conditions: glycan lost; control: WT mTRAIL-R
[3] = cell surface flow cytometry, 7 h TU; conditions: glycan lost; control: untreated MEFs
[4] = streptavidin pulldown, non-reducing immunoblot; conditions: glycan lost; control: untreated MEFs

| Protein | expression_or_secretion [1] | oligomerisation [2] | localisation_or_trafficking [3] | oligomerisation [4] |
| --- | --- | --- | --- | --- |
| B1 | no change, the mean intensity of the signal was even weaker for the N99/N122/N150Q mTRAIL-R-expressing cells | changes | – | – |
| B2 | – | – | no change | changes |
